Values of other authors in PMC6331645.

Target: Raf1 RBD RBD (Homo sapiens) (UniProt P04049)

Kd: 0.02 µM
Substance: KRas (from UniProt P01116)
